Tests used:
[1] = molecular target: T1, Human IL-21R (Biolegend, Catalog No. 773104) (human, UniProt Q9HBE5 20-232, limits assumed); assay: SPR, 37 C;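 as to Kd: fc fusion proteins captured on an anti-human IgG Fc Biacore surface, 10 min dissociation, double-referenced data fitted to a 1:1 Langmuir model with mass transport, triplicate runs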;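 as to koff: fc fusion proteins captured on an anti-human IgG Fc Biacore surface, 10 min dissociation, double-referenced data fitted to a 1:1 Langmuir model with mass transport, triplicate runs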;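 as to kon: fc fusion proteins captured on an anti-human IgG Fc Biacore surface, 10 min dissociation, double-referenced data fitted to a 1:1 Langmuir model with mass transport, triplicate runs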
T1 construct: Bought; also called human IL-21 receptor

[2] = molecular target: T1, Human IL-21R (Biolegend, Catalog No. …); assay: SPR, 37 C; remark: listed apart in the source
mouse CD8b = molecular target: T2, mouse CD8b (mouse, UniProt P10300 22-175, limits assumed); assay: not described
T2 sequence (looked up): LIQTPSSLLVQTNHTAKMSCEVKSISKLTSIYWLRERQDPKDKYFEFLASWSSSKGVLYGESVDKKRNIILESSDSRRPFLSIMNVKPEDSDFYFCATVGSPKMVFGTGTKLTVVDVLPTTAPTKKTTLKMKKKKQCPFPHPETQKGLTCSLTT

mouse CD8 = molecular target: T3, mouse CD8 (mouse, UniProt P01731 28-247; P10300 22-213); assay: not described
T3 construct: copies: 1 + 1

[3] = molecular target: Recombinant human IL-21R, extracellular domain fused to 8x Histidine tag (generated in house) (human, UniProt Q9HBE5 20-232); assay: SPR, 25 C
Sequence of Recombinant human IL-21R, extracellular domain fused to 8x Histidine tag (generated in house) (Q9HBE5 other isoform, or with tags, fused parts or gaps limits assumed): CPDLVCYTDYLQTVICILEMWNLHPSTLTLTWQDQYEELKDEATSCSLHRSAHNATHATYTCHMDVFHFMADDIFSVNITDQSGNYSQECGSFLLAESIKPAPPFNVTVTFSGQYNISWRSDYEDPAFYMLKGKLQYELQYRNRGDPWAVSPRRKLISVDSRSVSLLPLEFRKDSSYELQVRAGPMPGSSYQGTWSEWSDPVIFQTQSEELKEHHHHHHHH

T1 sequence (Q9HBE5 20-232 limits assumed): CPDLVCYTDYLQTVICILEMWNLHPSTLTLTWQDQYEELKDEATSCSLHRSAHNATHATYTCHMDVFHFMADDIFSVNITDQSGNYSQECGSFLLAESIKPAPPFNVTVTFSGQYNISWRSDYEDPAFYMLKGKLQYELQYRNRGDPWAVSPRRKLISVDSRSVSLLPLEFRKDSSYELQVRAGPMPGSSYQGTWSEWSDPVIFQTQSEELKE
T3 sequence (P01731 28-247 limits assumed, one chain of several): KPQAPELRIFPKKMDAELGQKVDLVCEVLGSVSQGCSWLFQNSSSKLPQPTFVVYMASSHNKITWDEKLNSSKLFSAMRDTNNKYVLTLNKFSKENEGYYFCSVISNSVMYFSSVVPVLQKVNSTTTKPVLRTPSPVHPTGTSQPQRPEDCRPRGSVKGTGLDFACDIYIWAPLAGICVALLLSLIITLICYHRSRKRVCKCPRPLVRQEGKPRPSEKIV

Binder | fold difference of IL-21R affinity against wild type IL-21 [1] [fold] | Kd [2] [nM] | koff [2] [s⁻¹] | kon [2] [M⁻¹ s⁻¹] | binding result (mouse CD8b) | binding result (mouse CD8) | Kd [3] [nM]
xhCD8.1-hIL21 v29 (other, Human IgG1/kappa, knob-into-hole, L234A/L235A/G237A) VH: QVQLVQSGAEVKKPGSSVKVSCKASGGTFSSYAISWVRQAPGQGLEWMGGIIPGYATANYAQKFQGRVTITADESTSTAYMELSSLRSEDTAVYYCARDAAGIRLFADWGQGTLVTVSS VL: DIQMTQSPSSLSASVGDRVTITCRASQSIYGALNWYQQKPGKAPKLLIYGASNLQSGVPSRFSGSGSGTDFTLTISSLQPEDFATYYCQSTYTAPWTFGGGTKVEIK QGQDRHMIRMRQLIDIVDQLKNYVNDLVPEFLPAPEDVETNCEWSAFSCFQKAQLKSANTGNNERIINVSIKKLKRKPPGGGGEGGGGGEGGCPSCDSYEKKPPKEFLERFKSLLQKMIHQHLSSRTHGSEDS | ≤ 2 | 0.094 | 0.00119 | 1.27e+07 |  |  | 
xhCD8.1 (antibody, V domains shown, Anti-human CD8 antibody; human IgG1/kappa; also called xhCD8v12; xCtrl (in mouse studies)) VH: QVQLVQSGAEVKKPGSSVKVSCKASGGTFSSYAISWVRQAPGQGLEWMGGIIPGYATANYAQKFQGRVTITADESTSTAYMELSSLRSEDTAVYYCARDAAGIRLFADWGQGTLVTVSS VL: DIQMTQSPSSLSASVGDRVTITCRASQSIYGALNWYQQKPGKAPKLLIYGASNLQSGVPSRFSGSGSGTDFTLTISSLQPEDFATYYCQSTYTAPWTFGGGTKVEIK |  |  |  |  | no binding | no binding | 
xhCD8.1-hIL21 v28 (other, Human IgG1/kappa, knob-into-hole, L234A/L235A/G237A) VH: QVQLVQSGAEVKKPGSSVKVSCKASGGTFSSYAISWVRQAPGQGLEWMGGIIPGYATANYAQKFQGRVTITADESTSTAYMELSSLRSEDTAVYYCARDAAGIRLFADWGQGTLVTVSS VL: DIQMTQSPSSLSASVGDRVTITCRASQSIYGALNWYQQKPGKAPKLLIYGASNLQSGVPSRFSGSGSGTDFTLTISSLQPEDFATYYCQSTYTAPWTFGGGTKVEIK not shown | ≤ 2 | 0.106 | 0.00139 | 1.31e+07 |  |  | 
xhCD8.1-hIL21 v31 (other, Human IgG1/kappa, knob-into-hole, L234A/L235A/G237A) VH: QVQLVQSGAEVKKPGSSVKVSCKASGGTFSSYAISWVRQAPGQGLEWMGGIIPGYATANYAQKFQGRVTITADESTSTAYMELSSLRSEDTAVYYCARDAAGIRLFADWGQGTLVTVSS VL: DIQMTQSPSSLSASVGDRVTITCRASQSIYGALNWYQQKPGKAPKLLIYGASNLQSGVPSRFSGSGSGTDFTLTISSLQPEDFATYYCQSTYTAPWTFGGGTKVEIK not shown | ≤ 2 | 0.094 | 0.00113 | 1.2e+07 |  |  | 
xhCD8.1-hIL21 v27 (other, Human IgG1/kappa, knob-into-hole, L234A/L235A/G237A) VH: QVQLVQSGAEVKKPGSSVKVSCKASGGTFSSYAISWVRQAPGQGLEWMGGIIPGYATANYAQKFQGRVTITADESTSTAYMELSSLRSEDTAVYYCARDAAGIRLFADWGQGTLVTVSS VL: DIQMTQSPSSLSASVGDRVTITCRASQSIYGALNWYQQKPGKAPKLLIYGASNLQSGVPSRFSGSGSGTDFTLTISSLQPEDFATYYCQSTYTAPWTFGGGTKVEIK not shown | ≤ 2 | 0.106 | 0.00139 | 1.31e+07 |  |  | 
xhCD8.1-hIL21 v30 (other, Human IgG1/kappa, knob-into-hole, L234A/L235A/G237A) VH: QVQLVQSGAEVKKPGSSVKVSCKASGGTFSSYAISWVRQAPGQGLEWMGGIIPGYATANYAQKFQGRVTITADESTSTAYMELSSLRSEDTAVYYCARDAAGIRLFADWGQGTLVTVSS VL: DIQMTQSPSSLSASVGDRVTITCRASQSIYGALNWYQQKPGKAPKLLIYGASNLQSGVPSRFSGSGSGTDFTLTISSLQPEDFATYYCQSTYTAPWTFGGGTKVEIK not shown | ≤ 2 | 0.093 | 0.00107 | 1.16e+07 |  |  | 
xhCD8-hIL21 v2 (other, Human IgG1/kappa, knob-into-hole, L234A/L235A/G237A; also called xhCD8-Fc-hIL21 v2; exemplary IL-21 polypeptide 2) VH: QVHLQQSGPELVKPGASVKMSCKTSGYTFTKYTMHWVKQGHEESLEWIGHFNPNNDETKYNQKFTGKATLTVDKSSTTAYMELRSLTSDDSALYYCARDGLGLRLFADWGQGTLITVSA VL: DIQMTQSPASLSASVGETVTITCGASENIYGALNWYQRKQGKSPQLLIFGATNLADGVSSRFSGSGSDRQYSLKISSLHPDDVATYYCQNILDTPWTFGGGTKLEIK not shown | ≤ 2 | 0.122 | 0.0011 | 8.9e+06 |  |  | 
xhCD8-hIL21 v1 (other, Human IgG1/kappa, knob-into-hole, L234A/L235A/G237A; also called exemplary IL-21 polypeptide 1) VH: QVHLQQSGPELVKPGASVKMSCKTSGYTFTKYTMHWVKQGHEESLEWIGHFNPNNDETKYNQKFTGKATLTVDKSSTTAYMELRSLTSDDSALYYCARDGLGLRLFADWGQGTLITVSA VL: DIQMTQSPASLSASVGETVTITCGASENIYGALNWYQRKQGKSPQLLIFGATNLADGVSSRFSGSGSDRQYSLKISSLHPDDVATYYCQNILDTPWTFGGGTKLEIK not shown | ≤ 2 | 0.117 | 0.00097 | 8.3e+06 |  |  | 
xhCD8-hIL21 v6 (other, Human IgG1/kappa, knob-into-hole, L234A/L235A/G237A; also called exemplary IL-21 polypeptide 6) VH: QVHLQQSGPELVKPGASVKMSCKTSGYTFTKYTMHWVKQGHEESLEWIGHFNPNNDETKYNQKFTGKATLTVDKSSTTAYMELRSLTSDDSALYYCARDGLGLRLFADWGQGTLITVSA VL: DIQMTQSPASLSASVGETVTITCGASENIYGALNWYQRKQGKSPQLLIFGATNLADGVSSRFSGSGSDRQYSLKISSLHPDDVATYYCQNILDTPWTFGGGTKLEIK not shown | ~3 | 0.478 | 0.0025 | 5.2e+06 |  |  | 
hIL21 v31.23, non-fusion, 8His-tagged (ligand) QGQDRHMIRMRQLIDIVDQLKNYVNDLVPEFLPAPEDVETNCEWSAFSCFQKAQLKSANTGNNERIINVSIKKLKQKPPGGEGGGGGGGEGGCPSCDSYEKKPPKEFLERFKSLLQKMIHQHLSSRTHGSEDSGGASHHHHHHHH |  |  |  |  |  |  | 6060
hIL21 v31.51, non-fusion, 8His-tagged (ligand) QGQDRHMIGMRQLIDIVDQLKNYVNDLVPEFLPAPEDVETNCEWSAFSCFQKAQLKSANTGNNERIINVSIKKLKRKPPGGEGGGGGGGEGGCPSCDSYEKKPPKEFLERFKSLLQKMIHQHLSSRTHGSEDSGGASHHHHHHHH |  |  |  |  |  |  | 7730
xhCD8v11 (antibody, V domains shown, Anti-human CD8 antibody; human IgG1/kappa) VH: EVQLVESGGGLVQPGGSLRLSCAASGFTFSSYAMSWVRQAPGKGLEWVSDITYAGGSTAYADSVKGRFTISRDNAKNSLYLQMNSLRAEDTAVYYCARSNAYAWDDALDIWGQGTLVTVSS VL: not shown |  |  |  |  |  | no binding | 

— patent US12247072 (ASHER BIOTHERAPEUTICS, dated 2025)
